Laboratory results reported in patent US8933039.

Columns and labels:
[tBuGly2]hGLP-2 = target: T1, [tBuGly2]hGLP-2
T1 chain: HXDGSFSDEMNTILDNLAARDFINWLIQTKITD

[Gly2,Ala5]hGLP-2(1-33) = target: T2, [Gly2,Ala5]hGLP-2(1-33)
T2 chain: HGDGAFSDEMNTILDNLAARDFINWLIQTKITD

[Ser2]hGLP-2(1-33) = target: T3, [Ser2]hGLP-2(1-33)
T3 chain: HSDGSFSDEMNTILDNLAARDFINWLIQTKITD

[Lys2]hGLP-2(1-33) = target: T4, [Lys2]hGLP-2(1-33)
T4 chain: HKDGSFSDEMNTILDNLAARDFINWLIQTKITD

[Pro3]hGLP-2(1-33) = target: T5, [Pro3]hGLP-2(1-33)
T5 chain: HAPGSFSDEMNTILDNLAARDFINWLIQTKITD

[Pro1]hGLP-2(1-33) = target: T6, [Pro1]hGLP-2(1-33)
T6 chain: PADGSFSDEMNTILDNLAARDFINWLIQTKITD

[D-Ala2]hGLP-2(1-33) = target: T7, [D-Ala2]hGLP-2(1-33)
T7 chain: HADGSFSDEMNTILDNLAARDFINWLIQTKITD

[Thr2]hGLP-2(1-33) = target: T8, [Thr2]hGLP-2(1-33)
T8 chain: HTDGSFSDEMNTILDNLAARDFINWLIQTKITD

[Phe2]hGLP-2(1-33) = target: T9, [Phe2]hGLP-2(1-33)
T9 chain: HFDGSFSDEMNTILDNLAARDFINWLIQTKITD

[Val2]GLP-2(1-33) = target: T10, [Val2]GLP-2(1-33)
T10 chain: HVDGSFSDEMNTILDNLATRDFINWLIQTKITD

[Tyr25]hGLP-2(1-33) = target: T11, [Tyr25]hGLP-2(1-33)
T11 chain: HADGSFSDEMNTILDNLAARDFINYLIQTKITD

[PhGly2]hGLP-2(1-33) = target: T12, [PhGly2]hGLP-2(1-33)
T12 chain: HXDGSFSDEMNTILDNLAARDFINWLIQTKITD

[Gly2,Ala24]hGLP-2(1-33) = target: T13, [Gly2,Ala24]hGLP-2(1-33)
T13 chain: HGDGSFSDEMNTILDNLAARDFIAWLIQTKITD

[1] = target: T14, [Arg-2,Arg-1]ratGLP-2(2-33)
T14 chain: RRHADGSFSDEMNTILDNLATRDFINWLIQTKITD

[2] = target: T15, [Gly2, Arg34]hGLP-2(1-34)
T15 chain: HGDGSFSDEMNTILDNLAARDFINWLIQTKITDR

[aAbu2]hGLP-2(1-33) = target: T16, [aAbu2]hGLP-2(1-33)
T16 chain: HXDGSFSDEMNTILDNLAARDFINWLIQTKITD

[Nval2]hGLP-2(1-33) = target: T17, [Nval2]hGLP-2(1-33)
T17 chain: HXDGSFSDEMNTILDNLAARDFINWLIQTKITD

[Arg-l]ratGLP-2(-1-33) = target: T18, [Arg-l]ratGLP-2(-1-33)
T18 chain: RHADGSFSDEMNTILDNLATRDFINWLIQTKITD

[Glu2]hGLP-2(1-33) = target: T19, [Glu2]hGLP-2(1-33)
T19 chain: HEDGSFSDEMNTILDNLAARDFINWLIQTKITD

[bAla2]hGLP-2(1-33) = target: T20, [bAla2]hGLP-2(1-33)
T20 chain: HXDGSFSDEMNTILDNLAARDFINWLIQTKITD

ratGLP-2(1-33) = target: T21, ratGLP-2(1-33)
T21 chain: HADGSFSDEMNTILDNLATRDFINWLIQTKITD

[3] = target: T22, [Gly2, Tyr34]hGLP-2(1-34)
T22 chain: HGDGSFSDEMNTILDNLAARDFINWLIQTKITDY

[Tyr1]ratGLP-2(1-33) = target: T23, [Tyr1]ratGLP-2(1-33)
T23 chain: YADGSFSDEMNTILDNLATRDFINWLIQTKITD

[Gly2,Ala4]hGLP-2(1-33) = target: T24, [Gly2,Ala4]hGLP-2(1-33)
T24 chain: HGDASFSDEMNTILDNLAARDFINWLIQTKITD

[Val2]hGLP-2(1-33) = target: T25, [Val2]hGLP-2(1-33)
T25 chain: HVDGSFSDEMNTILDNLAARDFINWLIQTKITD

[desNH2Tyr1]hGLP-2(1-33) = target: T26, [desNH2Tyr1]hGLP-2(1-33)
T26 chain: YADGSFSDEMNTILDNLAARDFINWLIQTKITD

[Tyr1, Gly2]hGLP-2(1-33) = target: T27, [Tyr1, Gly2]hGLP-2(1-33)
T27 chain: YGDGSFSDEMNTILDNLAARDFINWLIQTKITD

B1: human placental DPP-IV (Calbiochem, La Jolla, Calif., cat. #317624) (protein)
chain: MKTPWKVLLGLLGAAALVTIITVPVVLLNKGTDDATADSRKTYTLTDYLKNTYRLKLYSLRWISDHEYLYKQENNILVFNAEYGNSSVFLENSTFDEFGHSINDYSISPDGQFILLEYNYVKQWRHSYTASYDIYDLNKRQLITEERIPNNTQWVTWSPVGHKLAYVWNNDIYVKIEPNLPSYRITWTGKEDIIYNGITDWVYEEEVFSAYSALWWSPNGTFLAYAQFNDTEVPLIEYSFYSDESLQYPKTVRVPYPKAGAVNPTVKFFVVNTDSLSSVTNATSIQITAPASMLIGDHYLCDVTWATQERISLQWLRRIQNYSVMDICDYDESSGRWNCLVARQHIEMSTTGWVGRFRPSEPHFTLDGNSFYKIISNEEGYRHICYFQIDKKDCTFITKGTWEVIGIEALTSDYLYYISNEYKGMPGGRNLYKIQLSDYTKVTCLSCELNPERCQYYSVSFSKEAKYYQLRCSGPGLPLYTLHSSVNDKGLRVLEDNSALDKMLQNVQMPSKKLDFIILNETKFWYQMILPPHFDKSKKYPLLLDVYAGPCSQKADTVFRLNWATYLASTENIIVASFDGRGSGYQGDKIMHAINRRLGTFEVEDQIEAARQFSKMGFVDNKRIAIWGWSYGGYVTSMVLGSGSGVFKCGIAVAPVSRWEYYDSVYTERYMGLPTPEDNLDHYRNSTVMSRAENFKQVEYLLIHGTADDNVHFQQSAQISKALVDVGVDFQAMWYTDEDHGIASSTAHQHIYTHMSHFIKQCFSLP
Q: Which results are given for B1?
A: % Cleaved by DPP-IV ([tBuGly2]hGLP-2): 0%; % Cleaved by DPP-IV ([Gly2,Ala5]hGLP-2(1-33)): 0%; % Cleaved by DPP-IV ([Ser2]hGLP-2(1-33)): 0%; % Cleaved by DPP-IV ([Lys2]hGLP-2(1-33)): 0%; % Cleaved by DPP-IV ([Pro3]hGLP-2(1-33)): 0%; % Cleaved by DPP-IV ([Pro1]hGLP-2(1-33)): 0%; % Cleaved by DPP-IV ([D-Ala2]hGLP-2(1-33)): 0%; % Cleaved by DPP-IV ([Thr2]hGLP-2(1-33)): 0%; % Cleaved by DPP-IV ([Phe2]hGLP-2(1-33)): 0%; % Cleaved by DPP-IV ([Val2]GLP-2(1-33)): 0%; % Cleaved by DPP-IV ([Tyr25]hGLP-2(1-33)): 48%; % Cleaved by DPP-IV ([PhGly2]hGLP-2(1-33)): 0%; % Cleaved by DPP-IV ([Gly2,Ala24]hGLP-2(1-33)): 0%; % Cleaved by DPP-IV [1]: 0%; % Cleaved by DPP-IV [2]: 0%; % Cleaved by DPP-IV ([aAbu2]hGLP-2(1-33)): 49%; % Cleaved by DPP-IV ([Nval2]hGLP-2(1-33)): 0%; % Cleaved by DPP-IV ([Arg-l]ratGLP-2(-1-33)): 0%; % Cleaved by DPP-IV ([Glu2]hGLP-2(1-33)): 0%; % Cleaved by DPP-IV ([bAla2]hGLP-2(1-33)): 0%; % Cleaved by DPP-IV (ratGLP-2(1-33)): 58%; extent of cleavage after 24 hour incubation (RP-HPLC) (ratGLP-2(1-33)): 22% of the control peptide, rGLP-2, was cleaved by DPP-IV; % Cleaved by DPP-IV [3]: 0%; % Cleaved by DPP-IV ([Tyr1]ratGLP-2(1-33)): 100%; % Cleaved by DPP-IV ([Gly2,Ala4]hGLP-2(1-33)): 0%; % Cleaved by DPP-IV ([Val2]hGLP-2(1-33)): 13%; % Cleaved by DPP-IV ([desNH2Tyr1]hGLP-2(1-33)): 15%; % Cleaved by DPP-IV ([Tyr1, Gly2]hGLP-2(1-33)): 0%
